The series concerns the molecule itself. Briefly: crystal structure.

B1: Rv0812 (Mycobacterium tuberculosis bifunctional aminodeoxychorismate lyase / D-amino acid transaminase) (enzyme)
chain: MVVTLDGEILQPGMPLLHADDLAAVRGDGVFETLLVRDGRACLVEAHLQRLTQSARLMDLPEPDLPRWRRAVEVATQRWVASTADEGALRLIYSRGREGGSAPTAYVMVSPVPARVIGARRDGVSAITLDRGLPADGGDAMPWLIASAKTLSYAVNMAVLRHAARQGAGDVIFVSTDGYVLEGPRSTVVIATDGDQGGGNPCLLTPPPWYPILRGTTQQALFEVARAKGYDCDYRALRVADLFDSQGIWLVSSMTLAARVHTLDGRRLPRTPIAEVFAELVDAAIVSDR
notes: also called Mtb Rv0812; WT-Rv0812
For orientation: stoichiometry N means a count of units in the complex or per binding partner. In the case of B1, the “stoichiometry N” value came to 2.

The values above are taken from PMC8105722 (The Journal of Experimental Medicine, 2021).
